Source: patent US20030124529

B1: recombinant wild-type PAPP-A2 (pregnancy-associated plasma protein-A2), in medium of 293T cells transfected with pPA2 (protein)
chain: SPPEESNQNGGEGSYREAETFNSQVGLPILYFSGRRERLLLRPEVLAEIPREAFTVEAWVKPEGGQNNPAIIAGVFDNCSHTVSDKGWALGIRSGKDKGKRDARFFFSLCTDRVKKATILISHSRYQPGTWTHVAATYDGRHMALYVDGTQVASSLDQSGPLNSPFMASCRSLLLGGDSSEDGHYFRGHLGTLVFWSTALPQSHFQHSSQHSSGEEEATDLVLTASFEPVNTEWVPFRDEKYPRLEVLQGFEPEPEILSPLQPPLCGQTVCDNVELISQYNGYWPLRGEKVIRYQVVNICDDEGLNPIVSEEQIRLQHEALNEAFSRYNISWQLSVHQVHNSTLRHRVVLVNCEPSKIGNDHCDPECEHPLTGYDGGDCRLQGRCYSWNRRDGLCHVECNNMLNDFDDGDCCDPQVADVRKTCFDPDSPKRAYMSVKELKEALQLNSTHFLNIYFASSVREDLAGAATWPWDKDAVTHLGGIVLSPAYYGMPGHTDTMIHEVGHVLGLYHVFKGVSERESCNDPCKETVPSMETGDLCADTAPTPKSELCREPEPTSDTCGFTRFPGAPFTNYMSYTDDNCTDNFTPNQVARMHCYLDLVYQQWTESRKPTPIPIPPMVIGQTNKSLTIHWLPPISGVVYDRASGSLCGACTEDGTFRQYVHTASSRRVCDSSGYWTPEEAVGPPDVDQPCEPSLQAWSPEVHLYHMNMTVPCPTEGCSLELLFQHPVQADTLTLWVTSFFMESSQVLFDTEILLENKESVHLGPLDTFCDIPLTIKLHVDGKVSGVKVYTFDERIEIDAALLTSQPHSPLCSGCRPVRYQVLRDPPFASGLPVVVTHSHRKFTDVEVTPGQMYQYQVLAEAGGELGEASPPLNHIHGAPYCGDGKVSERLGEECDDGDLVSGDGCSKVCELEEGFNCVGEPSLCYMYEGDGICEPFERKTSIVDCGIYTPKGYLDQWATRAYSSHEDKKKCPVSLVTGEPHSLICTSYHPDLPNHRPLTGWFPCVASENETQDDRSEQPEGSLKKEDEVWLKVCFNRPGEARAIFIFLTTDGLVPGEHQQPTVTLYLTDVRGSNHSLGTYGLSCQHNPLIINVTHHQNVLFHHTTSVLLNFSSPRVGISAVALRTSSRIGLSAPSNCISEDEGQNHQGQSCIHRPCGKQDSCPSLLLDHADVVNCTSIGPGLMKCAITCQRGFALQASSGQYIRPMQKEILLTCSSGHWDQNVSCLPVDCGVPDPSLVNYANFSCSEGTKFLKRCSISCVPPAKLQGLSPWLTCLEDGLWSLPEVYCKLECDAPPIILNANLLLPHCLQDNHDVGTICKYECKPGYYVAESAEGKVRNKLLKIQCLEGGIWEQGSCIPVVCEPPPPVFEGMYECTNGFSLDSQCVLNCNQEREKLPILCTKEGLWTQEFKLCENLQGECPPPPSELNSVEYKCEQGYGIGAVCSPLCVIPPSDPVMLPENITADTLEHWMEPVKVQSIVCTGRRQWHPDPVLVHCIQSCEPFQADGWCDTINNRAYCHYDGGDCCSSTLSSKKVIPFAADCDLDECTCRDPKAEENQ
B2: purified PAPP-A2 (protein)
chain: B1 chain

Experiments:
[1] = target: C-terminally c-myc tagged rIGFBP-5 (human IGFBP-5 followed by a c-myc and His tag, expressed in 293T cells), P24593
[2] = target: rIGFBP-3 (gift of D. Powell), P17936
[3] = target: rIGFBP-5 (gift of D. Andress), P24593
Chain of rIGFBP-5 (gift of D. Andress), P24593 (P24593 21-272): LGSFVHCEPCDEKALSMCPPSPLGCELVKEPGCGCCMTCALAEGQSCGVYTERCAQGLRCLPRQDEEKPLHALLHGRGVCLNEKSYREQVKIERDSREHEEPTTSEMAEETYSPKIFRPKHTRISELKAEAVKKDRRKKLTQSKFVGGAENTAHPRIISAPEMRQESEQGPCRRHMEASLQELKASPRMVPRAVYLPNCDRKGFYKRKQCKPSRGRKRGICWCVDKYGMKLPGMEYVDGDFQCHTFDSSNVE

Chain of C-terminally c-myc tagged rIGFBP-5 (human IGFBP-5 followed by a c-myc and His tag, expressed in 293T cells), P24593 (P24593 other isoform, or with tags, fused parts or gaps): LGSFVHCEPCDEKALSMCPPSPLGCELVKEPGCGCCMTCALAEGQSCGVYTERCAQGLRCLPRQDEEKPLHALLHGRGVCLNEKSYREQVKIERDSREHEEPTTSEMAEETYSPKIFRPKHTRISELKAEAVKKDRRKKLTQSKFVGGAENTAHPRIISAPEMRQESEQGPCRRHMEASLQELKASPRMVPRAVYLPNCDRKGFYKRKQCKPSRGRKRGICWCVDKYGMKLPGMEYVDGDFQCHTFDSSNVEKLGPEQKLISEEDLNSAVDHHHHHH
Chain of rIGFBP-3 (gift of D. Powell), P17936 (P17936 28-291): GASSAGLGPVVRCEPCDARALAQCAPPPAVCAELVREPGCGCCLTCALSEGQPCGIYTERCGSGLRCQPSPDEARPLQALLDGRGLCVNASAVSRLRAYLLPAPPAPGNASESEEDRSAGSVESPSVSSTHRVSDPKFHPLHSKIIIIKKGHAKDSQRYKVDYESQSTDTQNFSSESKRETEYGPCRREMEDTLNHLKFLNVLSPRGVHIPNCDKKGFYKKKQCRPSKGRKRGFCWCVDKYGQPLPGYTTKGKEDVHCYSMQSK

Protein | proteolytic activity, Western blotting using anti-c-myc [1] | proteolytic cleavage, ligand blotting with radiolabeled IGF-II [2] | proteolytic cleavage, ligand blotting with radiolabeled IGF-II [3] | proteolytic cleavage, SDS-PAGE and N-terminal sequence analysis [1]
B1 | In the absence of inhibitors, wild-type PAPP-A2 degraded all rIGFBP-5 (lane 3) | IGFBP-3 was partially degraded | Of the six binding proteins, IGFBP-5 showed complete cleavage | –
B2 | – | – | – | PAPP-A2 cleaves IGFBP-5 at one site, between Ser-143 and Lys-144
